Experiments:
Type in all cases: biochemical, Acanthamoeba castellanii
[1] = substrate: NC(=O)C1=CN([C@@H]2O[C@H](COP(=O)(O)OP(=O)(O)OC[C@H]3O[C@@H](n4cnc5c(N)ncnc54)[C@H](OP(=O)(O)O)[C@@H]3O)[C@@H](O)[C@H]2O)C=CC1; experiment: GSH-dependent DTNB reduction, A412; details: 1 mM GSSG, 11 nM GR, 100 mM Tris pH 7.5
Text: GSH-dependent DTNB reduction, A412 on Ac GR

[2] = substrate: NC(=O)C1=CN([C@@H]2O[C@H](COP(=O)(O)OP(=O)(O)OC[C@H]3O[C@@H](n4cnc5c(N)ncnc54)[C@H](OP(=O)(O)O)[C@@H]3O)[C@@H](O)[C@H]2O)C=CC1; experiment: Trx-1-dependent DTNB reduction, A412; details: 10 µg/ml Trx-1, 1 mM DTNB, 1 µg/ml (31 nM) TrxR-S, 100 mM potassium phosphate pH 6.8, 21-23 °C
Text: Trx-1-dependent DTNB reduction, A412 on Ac TrxR-S

[3] = substrate: C[S+]([O-])CCC(N)C(=O)O; experiment: coupled NADPH oxidation via TrxR-S and Trx-1, A340; details: 610 nM MsrA, 1.9 µM Trx-1, Ac TrxR-S, 0.2 mM NADPH
Text: coupled NADPH oxidation via TrxR-S and Trx-1, A340 on MsrA

B1: Ac GR (Acanthamoeba castellanii str. Neff) (protein)
chain: MESAKSTYDFDLFVLGAGSGGVRASRISAKAGARVAIAEESRVGGTCVIRGCIPKKLLVYASHFSGDFEDSRNFGWSVDVKGFDWKKLIDNKDKEIDRLNGIYKNLLAGSGVKLIEGRATLVDAHTVKVGDATYTAENILVAVGSWPWVPTIPGIEHAITSNEALELQELPKHAIIVGAGYIACEFATIFSGCGAKVTQIFRKPYVLTGFDNDVQLAVMDEGKKQGINFMPSTQVTAIEKTDAGYVCQLDNGQTVTGDVVMYATGRVPNSANLGLENAGVKIDQQGAIVVDEWSRTSVPSIYAVGDITNRINLTPVALAEGHALADTLYNNLPRTADHTNVPSAVFTSPPVSCVGYTETQARQVYGEIDVYVSKFTPLRHTLSKRDEKTFMKLIVDRKTDRVVGAHMVGADAPEIIQGVAIAVKCGATKKQFDSTVGLHPSAAEEFVTMRTKRE
notes: full-length from cDNA, 454 aa, C-terminal 6xHis, expressed in Giardia lamblia WB C6, Ni-NTA; eluate also contained G. lamblia proteins
Km [1]: 9 µM

B2: Ac TrxR-S (Acanthamoeba castellanii str. Neff) (protein)
chain: MESKVHRMVIVGSGPAGHTAAIYAARANLEPVMYEGWMAGGVASGGQLTTTTDVENFPGFPEGVGGIDLTDNMRKQSERFGTVIIPKTITKADLSSRPFKLWVEGEEEGEPAAQAHSLIIATGATARRLAVPGEETFWQKGVSACAVCDGALPLFRNKPLAVVGGGDSACEEASWLSKFGSKVYLIHRRDELRASKIMAQRVLSNPKIEMVWNSAVEEIYGEKLVTGLKIKNVSTGDITDLPVSGLFWAIGHVPNTQFLNGQVETDAEGYIKTTPGSTVTSVEGVFAAGDVQDKRYRQAITAAGTGCMAALDAEHWLSAHL
notes: full-length from cDNA, 321 aa, C-terminal 6xHis, pET-17b, E. coli BL21-AI, Ni-NTA
Km [2]: 4 µM | Vmax [2]: 2.96 µmol/min/mg | kcat [2]: 1.7 s⁻¹

B3: MsrA (Acanthamoeba castellanii str. Neff) (protein)
chain: MTETATFGAGCFWGVEKFFRKEFGSALASTEVGYAGGDKSSPTYRQVCDGDTGHAEVVKLEFKKDAVDYASLVEFFFRIHDASTVDRQGNDVGTQYRSVIFYHTPEQKKVAEEVKDKVQKEHYPRTPIVTQIVPVGQYWSAEDYHQLYLEKNPSGYCNHRLRW
notes: full-length from cDNA, 163 aa, C-terminal 6xHis, pET-17b, E. coli BL21-AI, Ni-NTA
Km [3]: 2590 µM | Vmax [3]: 500 nmol/min/mg | kcat [3]: 0.155 s⁻¹ | kcat/Km [3]: 59 M⁻¹ s⁻¹

Source: paper PMC8038987, “An unusual thioredoxin system in the facultative parasite Acanthamoeba castellanii” (Cellular and Molecular Life Sciences: CMLS, 2021)
